In general, Km refers to the concentration of substrate that gives half-maximal velocity. As a reminder, the kcat is the number of substrate molecules converted per active site and unit of time at saturation. As a reminder, the kcat/Km is the second-order rate constant that governs catalysis at low substrate concentration.

Assay in all cases: purified protein, by the assay type
Set-up in all cases: fluorogenic ester hydrolysis, fluorescein release, Michaelis-Menten fit of initial rates

Substrate in data set [1]: CCCC(=O)OCOc1ccc2c(c1)Oc1cc(OCOC(=O)CCC)ccc1C21OC(=O)c2ccccc21
Here is the method:
(§1) The enzyme kinetic activity of LipN was assayed via the hydrolysis of the fluorogenic substrates (Figure 1) in accordance with past kinetic analysis of mycobacterial serine hydrolases.[37],[38],[40],[66],[67] Kinetic assays were run in triplicate on black 96-well plates in a Synergy H1 Hybrid Reader (BioTek). Fluorogenic ester substrates (10 mM in DMSO) were diluted to a starting concentration of 100 μM in PBS containing acetylated BSA (Sigma; 0.1 mg/mL). Eight serial dilutions (1:1; 120 μL into 240 μL total volume) of each substrate were made using PBS–BSA. Fluorogenic substrate dilutions (95 μL) were then transferred to opaque 96-well microplate (Corning, Lowell, MA). Reactions were initiated by quickly adding enzyme (5 μL, 3.0 nM final concentration) to each assay well, mixed, and the fluorescence counts measured every 26–30 s for 4.5 min with a BioTek H1 Synergy multimode plate reader (Biotek Instruments; Winooski, VT) at ambient temperature. The instrument measured relative fluorescence through excitation at λ = 485 nm and emission at λ = 520 nm. The fluorescence change was converted to molar concentrations using a fluorescein standard curve (300–2.3 nM), whose fluorescence was measured simultaneously. The initial rates of the enzyme-catalyzed reactions were measured in triplicate and plotted versus fluorogenic substrate concentration. […] (A) Activation of fluorogenic ester substrates by MmLipN. Each of the substrates is composed of diacyloxymethyl ether fluorescein with varying R-groups. The differing R-groups have been organized into classes and colored based on chemical functionality. All of the substrates were synthesized as described previously.[38],[43] Substrates 6, 10–11, 14–15, 20, 23–30, and 33 were newly synthesized for this characterization of MmLipN. Detailed synthetic characterization is provided in the Supporting Information. (B) Global comparison of the catalytic specificity (kcat/KM) of MmLipN against each of the 33 substrates with ester classes labeled. Catalytic efficiency values (kcat/Km) are given ± SD based on at least three independent kinetic replicates. (C, D) Kinetic activity of MmLipN against high-activity ester substrates 1 (black circles), 7 (blue squares), and 20 (red diamonds) and low-activity ester substrates 12 (green circles), 16 (red squares), 27 (purple diamonds), and 31 (orange squares). Low- and high-activity substrates display classic Michaelis–Menten kinetics with MmLipN and activity above background hydrolysis rates. Traces colored based on ester classification from (A, B). All measurements were completed in at least triplicate and shown ± SD.

Substrate in data set [2]: O=C1OC2(c3ccc(OCOC(=O)C4(c5ccccn5)CC4)cc3Oc3cc(OCOC(=O)C4(c5ccccn5)CC4)ccc32)c2ccccc21
The protocol: as §1

Substrate in data set [3]: CC(C)C(=O)OCOc1ccc2c(c1)Oc1cc(OCOC(=O)C(C)C)ccc1C21OC(=O)c2ccccc21
Here is the method: as §1

Substrate in data set [4]: O=C1OC2(c3ccc(OCOC(=O)C4(c5ccccc5)CC4)cc3Oc3cc(OCOC(=O)C4(c5ccccc5)CC4)ccc32)c2ccccc21
Here is the method: as §1

Substrate in data set [5]: N#CCC(=O)OCOc1ccc2c(c1)Oc1cc(OCOC(=O)CC#N)ccc1C21OC(=O)c2ccccc21
The protocol:
as §1

B1: MmLipN (LipN from M. marinum) (Mycobacterium marinum M) (protein)
chain: MTNSLPGETDLHPETVHATMSWLSRVQNTVTVVGAKVIPWVPDVAKRLITRGRSVIIDGNTLDPALQLMLSGMRVVGLDGLVIDDDLAASRAHMREAMLGFPGPQIHVDVEELTLPGPAGDISARHYRPPGDAAAPLLVFYHGGGWALGDLDTHDAVCRLTCRDAGIHVLAIDYRLSPEDRAPAAIDDAFAAFEWAHAHAAELGALPGRVAVGGDSAGGNLAAVVSQLARDSGGPAPIFQWLIYPRTDFAGRTRSASLFARGFLLTKRDIDWFHSQYLKGSGIEPTDPRVSPLRAESLAGLAPALIAVAGFDPLRDEGENYATALRAAGTPVDLRAMGSLTHGFLNLFPLGGGCAAATSELISALRAHLTRV
notes: E. coli LOBSTR (DE3); Ni-NTA
With B1, the Km in data set [1] came to 6.2 ± 0.1 µM; in data set [2], 0.049 ± 0.027 µM; in data set [3], 9.5 ± 2.2 µM; in data set [4], 13 ± 8 µM; in data set [5], 3.1 ± 0.6 µM. In addition, the kcat in data set [1] came to 0.062 ± 0.029 s⁻¹; in data set [2], 2.6e-05 ± 2e-05 s⁻¹; in data set [3], 0.017 ± 0.014 s⁻¹; in data set [4] it was 5.8e-05 ± 0.00014 s⁻¹; in data set [5], 0.015 ± 0.008 s⁻¹. The kcat/Km came out at 10000 ± 5000 M⁻¹ s⁻¹ in data set [1]; 530 ± 250 M⁻¹ s⁻¹ in data set [2]; 1800 ± 800 M⁻¹ s⁻¹ in data set [3]; 4.4 ± 5.4 M⁻¹ s⁻¹ in data set [4]; 4900 ± 1400 M⁻¹ s⁻¹ in data set [5].

Values taken from publication PMC10099132, “Sequence and Structural Motifs Controlling the Broad Substrate Specificity of the Mycobacterial Hormone-Sensitive Lipase LipN” (ACS Omega, 2023).
